According to US20220348934A1, “NON-RIBOSOMAL PEPTIDES AND SYNTHETASES AND METHODS OF PREPARATION AND USE THEREOF” (VICTORIA LINK LIMITED, priority 2019, published 2022):

B1: control Pro A domain substitution strain: Pro-CATTe construct carrying the Pro specific A domain from Pro-CAT (TycB module 1), control substitution (protein)
chain: LAGHLQQIADCVANNSGVELCQIPLLTEAETSQLLAKRTETAADYPAATMHELFSRQAEKTPEQVAVVFADQHLTYRELDEKSNQLARFLRKKGIGTGSLVGTLLDRSLDMIVGILGVLKAGGAFVPIDPELPAERIAYMLTHSRVPLVVTQNHLRAKVTTPTETIDINTAVIGEESRAPIESLNQPHDLFYIIYTSGTTGQPKGVMLEHRNMANLMHFTFDQTNIAFHEKVLQYTTCSFDVCYQEIFSTLLSGGQLYLITNELRRHVEKLFAFIQEKQISILSLPVSFLKFIFNEQDYAQSFPRCVKHIITAGEQLVVTHELQKYLRQHRVFLHNHYGPSETHVVTTCTMDPGQAIPELPPIGKPISNTGIYILDEGLQLKPEGIVGELYISGANVGRGYLHQPELTAEKFLDNPYQPGERMYRTGDLALWLPDGQLEFLGRIDHQVKIRGHRIELGEIESRLLNHPAIKEAVVIDRADETGGKFLCAYVVLQKALSDEEMRAYLAQALPEYMIPSFFVTLERIPVTPNGKTDRRALPKPE
B2: A domain from SrfAC: Pro-CATTe construct with the Leu specific A domain from SrfAC substituted (protein)
chain: LAGHLQQIADCVANNPDQPVSTINLVDDREREFLLTGLNPPAQAHETKPLTYWFKEAVNANPDAPALTYSGQTLSYRELDEEANRIARRLQKHGAGKGSVVALYTKRSLELVIGILGVLKAGAAYLPVDPKLPEDRISYMLADSAAACLLTHQEMKEQAAELPYTGTTLFIDDQTRFEEQASDPATAIDPNDPAYIMYTSGTTGKPKGNITTHANIQGLVKHVDYMAFSDQDTFLSVSNYAFDAFTFDFYASMLNAARLIIADEHTLLDTERLTDLILQENVNVMFATTALFNLLTDAGEDWMKGLRCILFGGERASVPHVRKALRIMGPGKLINCYGPTEGTVFATAHVVHDLPDSISSLPIGKPISNASVYILNEQSQLQPFGAVGELCISGMGVSKGYVNRADLTKEKFIENPFKPGETLYRTGDLARWLPDGTIEYAGRIDDQVKIRGHRIELEEIEKQLQEYPGVKDAVVVADRHESGDASINAYLVNRTQLSAEDVKAHLKKQLPAYMVPQTFTFLDELPLTTNGKVNKRLLPKPD
B3: A domain from TycC6: Pro-CATTe construct with the Leu specific A domain from the sixth module of TycC substituted (protein)
chain: LAGHLQQIADCVANNPHIRLGEIDMLLPEEKQQILAGFNDTAVSYALDKTLHQLFEEQVDKTPDQAALLFSEQSLTYSELNERANRLARVLRAKGVGPDRLVAIMAERSPEMVIGILGILKAGGAYVPVDPGYPQERIQYLLEDSNAALLLSQAHLLPLLAQVSSELPECLDLNAELDAGLSGSNLPAVNQPTDLAYVIYTSGTTGKPKGVMIPHQGIVNCLQWRRDEYGFGPSDKALQVFSFAFDGFVASLFAPLLGGATCVLPQEAAAKDPVALKKLMAATEVTHYYGVPSLFQAILDCSTTTDFNQLRCVTLGGEKLPVQLVQKTKEKHPAIEINNEYGPTENSVVTTISRSIEAGQAITIGRPLANVQVYIVDEQHHLQPIGVVGELCIGGAGLARGYLNKPELTAEKFVANPFRPGERMYKTGDLVKWRTDGTIEYIGRADEQVKVRGYRIEIGEIESAVLAYQGIDQAVVVARDDDATAGSYLCAYFVAATAVSVSGLRSHLAKELPAYMIPSYFVELDQLPLSANGKVDRKALPKPQ

System: BAP1 strain of E. coli
Test: Dipeptide production by Pro-CATTe A domain substitution constructs co-expressed with Phe-ATE, quantified by HPLC
Assay type: cell-based
Conditions: BAP1 E. coli with Phe-ATE plasmid, grown 24 hours in 10 mL M9, absorbance at 214 nm; for D-Phe-L-Leu produced: upstream site X
Description: The Phe-ATE/Pro-CAT NRPS system originally used by Belshaw et al comprises the first two modules from the NRPS pathway involved in the biosynthesis of tyrocidine in B. brevis (Belshaw et al. 1999). This two-enzyme system was used to infer stringent acceptor site specificity of the C domain within Pro-CAT that precluded incorporation of L-Leu and L-Phe substrates (Belshaw et al. 1999). An A domain substitution plasmid was made based on pET28a containing the C domain from Pro-CAT, restriction sites to insert alternative A domains, and the T-Te domains from SrfAC (SEQ ID NO: 108). […] The Pro specific A domain from Pro-CAT and five additional A domains were selected to insert into the A domain substitution construct. The five additional domains are represented by SEQ ID NOs: 109, 111, 113, 115, 117, 119, and included the Leu specific A domain from SrfAC, three additional Leu specific A domains and a Phe specific A domain.
The DNA sequences of SEQ ID NOs: 109, 111, 113, 115, 117, 119, were digested using NheI and NotI, then ligated into the compatible SpeI and NotI restriction sites of the vector pET28:ProC-TTe (SEQ ID NO: 108). The resulting Pro-CATTe constructs were transformed into a BAP1 strain of E. coli (Pfeifer et al. 2001) along with a second plasmid containing Phe-ATE (SEQ ID NO: 121). The strains were grown for 24 hours in 10 mL of M9, extracted and analysed using established protocols (Gruenewald et al. 2004). The production of dipeptides was quantified using HPLC and absorbance at 214 nm (FIG. 13), and confirmed using mass spectrometry.

Molecule | D-Phe-L-Pro DKP synthesised | D-Phe-L-Leu produced
B1 | 7.8 mg/L | 
B2 |  | 1.81 mg/L
B3 |  | 3.06 mg/L
